Our source for the Kd values is patent US20130064825A1.

In assay [1] the target is cynomolgus monkey PCSK9, V5-6xHIS tagged (cynomolgus monkey). Briefly: SPR (Biacore 2000), antibody amine-coupled on CM5 chip, PCSK9 injected, pH 7.4.
Assay [2] shares this target. Briefly: Biacore solution equilibrium assay: PCSK9 mixed with 21B12.1, free PCSK9 read on immobilised 21B12. (In general: In SPR one partner is held on a chip, and binding of the other changes the refractive index at the surface.)
Assay [3] shares this target. Briefly: KinExA solution equilibrium, PCSK9-coated beads; cyno PCSK9. (Kinetic exclusion samples the free partner from a solution-phase mixture.)

B1: 21B12, anti-PCSK9 huIgG4 (antibody, V domains shown)
VH: QVQLVQSGAEVKKPGASVKVSCKASGYTLTSYGISWVRQAPGQGLEWMGWVSFYNGNTNYAQKLQGRGTMTTDPSTSTAYMELRSLRSDDTAVYYCARGYGMDVWGQGTTVTVSS
VL: QSALTQPASVSGSPGQSITISCTGTSSDVGGYNSVSWYQQHPGKAPKLMIYEVSNRPSGVSNRFSGSKSGNTASLTISGLQAEDEADYYCNSYTSTSMVFGGGTKLTVLQ
What is called Kd is the equilibrium constant for the complex coming apart. With B1, the figures for the Kd in assay [1] and in assay [2] were 0.36 nM and 0.011 nM, respectively.

B2: 16F12, anti-PCSK9 huIgG4 (antibody, V domains shown)
VH: QVHLVESGGGVVQPGRSLRLSCAASGFTFNSFGMHWVRQAPGKGLEWVALIWSDGSDEYYADSVKGRFTISRDNSKNTLYLQMNSLRAEDTAVYYCARAIAALYYYYGMDVWGQGTTVTVSS
VL: QSVLTQPPSVSAAPGQKVTISCSGSSSNIGNNFVSWYQQLPGTAPKLLIYDYNKRPSGIPDRFSGSKSGTSATLGITGLQTGDEADYYCGTWDSSLSAYVFGTGTRVTVLQ
For B2, the Kd in assay [1] was determined as 0.87 nM; in assay [3] it was 0.016 nM.
